Biological target: full-length human IGFN1 with an N-terminal c-myc tag (human, UniProt Q86VF2-2 1-868)
Experiment: co-IP

B1: endogenous eEF1A1 of mouse C2C12 myoblasts (natural protein, mouse (endogenous in C2C12), UniProt P10126 1-462, looked up)
chain: MGKEKTHINIVVIGHVDSGKSTTTGHLIYKCGGIDKRTIEKFEKEAAEMGKGSFKYAWVLDKLKAERERGITIDISLWKFETSKYYVTIIDAPGHRDFIKNMITGTSQADCAVLIVAAGVGEFEAGISKNGQTREHALLAYTLGVKQLIVGVNKMDSTEPPYSQKRYEEIVKEVSTYIKKIGYNPDTVAFVPISGWNGDNMLEPSANMPWFKGWKVTRKDGSASGTTLLEALDCILPPTRPTDKPLRLPLQDVYKIGGIGTVPVGRVETGVLKPGMVVTFAPVNVTTEVKSVEMHHEALSEALPGDNVGFNVKNVSVKDVRRGNVAGDSKNDPPMEAAGFTAQVIILNHPGQISAGYAPVLDCHTAHIACKFAELKEKIDRRSGKKLEDGPKFLKSGDAAIVDMVPGKPMCVESFSDYPPLGRFAVRDMRQTVAVGVIKAVDKKAAGAGKVTKSAQKAQKAK
fold of eEF1A1 immunoprecipitated against cells with the empty pCMV-myc vector: ~4 fold
